Measurements from patent US20240059799A1 (Pfizer, published 2024).
Numbering of substitutions follows the chain as printed.

T1: recombinant human TL1A (human, UniProt O95150 71-251)
T1 construct: TL1A is described as a homotrimer; Biotinylated for SPR capture; also called TNFSF15
T1 chain: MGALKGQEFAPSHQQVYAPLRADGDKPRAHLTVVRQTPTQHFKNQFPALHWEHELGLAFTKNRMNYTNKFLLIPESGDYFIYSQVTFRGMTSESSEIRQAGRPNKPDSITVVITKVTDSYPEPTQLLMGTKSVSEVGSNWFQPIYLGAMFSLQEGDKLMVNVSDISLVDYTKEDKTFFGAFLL

T2: human IL-23 (human, UniProt P29460 23-328; Q9NPF7 20-189)
T2 construct: also called recombinant human IL-23 (p40/p19)
T2 sequence 1: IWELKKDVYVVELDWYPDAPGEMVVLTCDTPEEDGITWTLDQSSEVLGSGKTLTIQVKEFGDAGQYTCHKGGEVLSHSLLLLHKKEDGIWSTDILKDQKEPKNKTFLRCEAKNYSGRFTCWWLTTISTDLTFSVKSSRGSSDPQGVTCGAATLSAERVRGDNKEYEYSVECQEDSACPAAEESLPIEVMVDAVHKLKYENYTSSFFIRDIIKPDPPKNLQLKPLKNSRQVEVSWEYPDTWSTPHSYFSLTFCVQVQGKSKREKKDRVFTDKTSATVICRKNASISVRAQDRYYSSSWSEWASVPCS
T2 sequence 2: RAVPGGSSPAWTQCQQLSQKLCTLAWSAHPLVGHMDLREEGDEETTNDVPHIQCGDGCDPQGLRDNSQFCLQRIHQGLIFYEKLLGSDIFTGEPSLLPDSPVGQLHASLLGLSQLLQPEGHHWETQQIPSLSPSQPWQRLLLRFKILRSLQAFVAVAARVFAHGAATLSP

T3: full-length human TL1A on CHO-K1 cells (human, UniProt O95150 1-251)
T3 construct: whole, on cells; also called cells over-expressing human TL1A
T3 sequence (looked up): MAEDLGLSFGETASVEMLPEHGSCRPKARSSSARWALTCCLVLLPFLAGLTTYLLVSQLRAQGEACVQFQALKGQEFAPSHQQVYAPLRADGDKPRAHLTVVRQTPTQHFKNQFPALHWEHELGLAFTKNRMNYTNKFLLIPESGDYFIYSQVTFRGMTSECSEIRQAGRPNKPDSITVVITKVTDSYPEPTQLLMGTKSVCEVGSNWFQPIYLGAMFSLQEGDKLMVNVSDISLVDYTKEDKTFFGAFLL

T4: recombinant human TL1A (human, UniProt O95150 71-251)
T4 construct: Homotrimeric cytokine; biotinylated with Sulfo-NHS-biotin where captured for SPR, coated unlabelled in ELISA, soluble in bioassays; also called TNFSF15
T4 chain: T1 chain

B1: p40TL1A-0040 KiH mFd bispecific antibody (bispecific antibody)
heavy: EVQLVQSGAEVKKPGESLKISCKGSGYSFTTYWLGWVRQMPGKGLDWIGIMSPVDSDIRYSPSFQGQVTMSVDKSITTAYLQWNSLKASDTAMYYCARRRPGQGYFDFWGQGTLVTVSSASTKGPSVFPLAPSSKSTSGGTAALGCLVKDYFPEPVTVSWNSGALTSGVHTFPAVLQSSGLYSLSSVVTVPSSSLGTQTYICNVNHKPSNTKVDKKVEPKSCDKTHTCPPCPAPEAAGAPSVFLFPPKPKDTLMISRTPEVTCVVVDVSHEDPEVKFNWYVDGVEVHNAKTKPREEQYNSTYRVVSVLTVLHQDWLNGKEYKCKVSNKALPAPIEKTISKAKGQPREPQVYTLPPCREEMTKNQVSLSCAVKGFYPSDIAVEWESNGQPENNYKTTPPVLDSDGSFFLVSKLTVDKSRWQQGNVFSCSVLHEALHSHYTQKSLSLSPGK
light: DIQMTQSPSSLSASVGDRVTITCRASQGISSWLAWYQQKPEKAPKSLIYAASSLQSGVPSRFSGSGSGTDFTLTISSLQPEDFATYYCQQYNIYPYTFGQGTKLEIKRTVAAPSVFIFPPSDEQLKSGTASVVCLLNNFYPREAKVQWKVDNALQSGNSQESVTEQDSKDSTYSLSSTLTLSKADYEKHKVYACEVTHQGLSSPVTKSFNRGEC
LC-Fc: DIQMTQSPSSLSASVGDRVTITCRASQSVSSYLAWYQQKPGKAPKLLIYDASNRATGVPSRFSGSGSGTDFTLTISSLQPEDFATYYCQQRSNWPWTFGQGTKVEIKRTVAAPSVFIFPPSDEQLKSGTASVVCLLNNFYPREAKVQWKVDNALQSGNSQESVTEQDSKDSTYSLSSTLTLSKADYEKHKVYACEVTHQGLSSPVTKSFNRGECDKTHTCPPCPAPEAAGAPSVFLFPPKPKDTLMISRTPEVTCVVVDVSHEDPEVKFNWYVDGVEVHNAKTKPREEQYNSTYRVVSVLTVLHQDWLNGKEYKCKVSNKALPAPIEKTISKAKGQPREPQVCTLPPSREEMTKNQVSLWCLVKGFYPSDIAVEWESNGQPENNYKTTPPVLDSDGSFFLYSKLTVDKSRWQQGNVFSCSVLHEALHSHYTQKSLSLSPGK
mFd: QVQLVQSGAEVKKPGASVKVSCKASGYDYTYYGISWVRQAPGQGLEWMGWISTYNTGTHYAPSLQGRVTMTTDTSTSTAYMELRSLRSDDTAVYYCARESYYGSGAFRGGMDVWGQGTTVTVSSASTKGPSVFPLAPSSKSTSGGTAALGCLVKDYFPEPVTVSWNSGALTSGVHTFPAVLQSSGLYSLSSVVTVPSSSLGTQTYICNVNHKPSNTKVDKKVEPKSC
notes: Same format as p40TL1A-0033 with knob and hole swapped
B2: TL1A-0371 MBsAb (bispecific antibody)
heavy 1: QVQLVQSGAEVKKPGASVKVSCKASGYDYTYYGISWVRQAPGQGLEWMGWISTYNTGTHYAPSLQGRVTMTTDTSTSTAYMELRSLRSDDTAVYYCARESYYGSGAFRGGMDVWGQGTTVTVSSASTKGPSVFPLAPSSKSTSGGTAALGCLVKDYFPEPVTVSWNSGALTSGVHTFPAVLQSSGLYSLSSVVTVPSSSLGTQTYICNVNHKPSNTKVDKKVEPKSCDKTHTCPPCPAPEAAGAPSVFLFPPKPKDTLMISRTPEVTCVVVDVSHEDPEVKFNWYVDGVEVHNAKTKPREEQYNSTYRVVSVLTVLHQDWLNGKEYKCKVSNKALPAPIEKTISKAKGQPREPQVCTLPPSREEMTKNQVSLWCLVKGFYPSDIAVEWESNGQPENNYKTTPPVLDSDGSFFLYSKLTVDKSRWQQGNVFSCSVLHEALHSHYTQKSLSLSPGK
heavy 2: not shown
light: not shown
notes: not shown: human IgG1 constant region with hole KiH, effector-minimizing and LS mutations
B3: TL1A-0368 MBsAb (bispecific antibody)
heavy 1: B2 heavy 1
heavy 2: QVQLVQSGAEVKKPGASVKVSCKASGYTFTSYGISWVRQAPGQGLEWMGWISAYNGNTNYAQKLQGRVTMTTDTSTSTAYMELRSLRSDDTAVYYCARESYYGSEAFRAGMDVWGQGTTVTVSS
light: not shown
notes: as for B2
B4: TL1A-0374 MBsAb (bispecific antibody)
heavy 1: B2 heavy 1
heavy 2: not shown
light: not shown
notes: as for B2
B5: TL1A-0373 MBsAb (bispecific antibody)
heavy 1: B2 heavy 1
heavy 2: not shown
light: not shown
notes: as for B2
B6: TL1A-0370 MBsAb (bispecific antibody)
heavy 1: B2 heavy 1
heavy 2: B3 heavy 2 with Y101S
light: not shown
notes: as for B2
B7: TL1A-0375 MBsAb (bispecific antibody)
heavy 1: B2 heavy 1
heavy 2: not shown
light: not shown
notes: as for B2
B8: [xTL1A]-0363 (antibody, human IgG1, kappa, V domains shown)
VH: not shown
VL: DIQMTQSPSSLSASVGDRVTITCRASQSVSSYLAWYQQKPGKAPKLLIYDASNRATGVPSRFSGSGSGTDFTLTISSLQPEDFATYYCQQRSNWPWTFGQGTKVEIKR
notes: bivalent disabled antibody, IgG1 effector-function-minimized/kappa
B9: [xTL1A]-0358 (antibody, human IgG1, kappa, V domains shown)
VH: not shown
VL: B8 VL
notes: as for B8

Tests used:
recombinant human TL1A [1] = target: T1, recombinant human TL1A; assay: SPR, 37 C; biotinylated human TL1A captured on Biotin CAPture chip, antibody injected
Description: (§1) SPR was utilized to determine if the affinity constants of each arm of the bispecific variants binding human IL-23, containing the p40 subunit, and human TL1A were the same for each bispecific approach. For the analysis of the p40 binding arm, kinetic assays were conducted at 37° C. using a collection rate of 10 Hz on a Biacore™ 8 K+ instrument (GE Healthcare). An anti-human IgG antibody (anti-human Fc, GE Healthcare, 22-0648-88) was amine coupled to all four flow cells of a carboxymethylated dextran coated sensor chip (GE Healthcare,) using the manufacturer's recommended protocol. […] For the analysis of the TL1A binding arm, kinetic assays were conducted at 37° C. using a collection rate of 10 Hz on a Biacore™ T200 instrument (GE Healthcare).
(§2) As described above in EXAMPLE 12, SPR was utilized to determine if the affinity constants of each arm of the bispecific variants binding human IL-23, containing the p40 subunit, and human TL1A were the same for each bispecific variant.

recombinant human TL1A [2] = target: T1, recombinant human TL1A; assay: cell-based or functional assay
human IL-23 = target: T2, human IL-23; assay: SPR, 37 C; antibody captured by anti-human Fc, human IL-23 injected
Description: as §1, §2

human serum albumin = target: T5, human serum albumin (human, UniProt P02768 25-609); assay: direct binding ELISA on coated HSA
T5 construct: also called HSA
Description: (§3) For the direct binding ELISA method to HSA or BSA, 96-well high binding plates (Corning, product number 3590) were coated with 1 μg/mL recombinant HSA or BSA in 100 μL/well in PBS overnight at 4° C. Plates were then blocked in PBS+0.02% casein solution and washed with PBS+0.05% Tween-20 following standard ELISA protocol. […] Plates were washed with PBS+0.05% Tween-20 following standard ELISA protocol, and goat anti-human IgG-Fc HRP conjugated secondary antibody (Pierce, #31413) diluted to 1:10,000 in assay buffer was added to plates and incubated for 1 hour at room temperature. Next, the plates were washed with PBS+0.05% Tween-20 following standard ELISA protocol, and then TMB substrate (BioFX Laboratories, catalog number TMBW-0100-01) was added to plates.
(§4) Reactions were stopped after approximately 5 minutes by adding 0.18 M ortho-phosphoric acid to each well and absorbance was read at 450 nm. […] For this method, samples diluted to 0.3 mg/mL were dispensed into the sample tray of a MicroCal VP-Capillary DSC with Autosampler (Malvern Instruments, Inc.), equilibrated for 5 minutes at 10° C. and then scanned up to 110° C. at a rate of 100° C. per/hour. A filtering period of 16 seconds was selected. Raw data was baseline corrected and the protein concentration was normalized. Origin Software 7.0 (Origin Lab Corporation, Northampton, MA) was used to fit the data to an MN2-State Model with an appropriate number of transitions.

bovine serum albumin = target: T6, bovine serum albumin (bovine, UniProt P02769 25-607); assay: direct binding ELISA on coated BSA
T6 construct: also called BSA
T6 sequence (P02769 25-607 limits assumed): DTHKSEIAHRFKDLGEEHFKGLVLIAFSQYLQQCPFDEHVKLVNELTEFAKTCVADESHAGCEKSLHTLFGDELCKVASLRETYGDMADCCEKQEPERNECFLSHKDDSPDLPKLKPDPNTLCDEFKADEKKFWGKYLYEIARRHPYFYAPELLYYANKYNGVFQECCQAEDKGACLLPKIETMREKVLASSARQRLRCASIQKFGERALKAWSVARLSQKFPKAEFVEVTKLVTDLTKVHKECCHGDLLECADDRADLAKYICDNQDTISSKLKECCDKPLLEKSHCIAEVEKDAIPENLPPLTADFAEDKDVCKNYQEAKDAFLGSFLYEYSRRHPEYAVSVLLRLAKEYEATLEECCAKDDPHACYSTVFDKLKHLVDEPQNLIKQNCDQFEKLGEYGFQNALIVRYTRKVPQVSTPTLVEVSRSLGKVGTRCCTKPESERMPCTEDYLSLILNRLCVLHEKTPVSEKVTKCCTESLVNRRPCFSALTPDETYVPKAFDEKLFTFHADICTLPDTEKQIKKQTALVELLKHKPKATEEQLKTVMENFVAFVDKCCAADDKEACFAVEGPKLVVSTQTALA
Description: as §3, §4

[3] = target: T3, full-length human TL1A on CHO-K1 cells; assay: flow cytometry on CHO-K1 cells stably expressing full-length human TL1A, PE anti-human IgG, median fluorescent intensity
Description: A cell binding assay was performed to examine if the panel of [xTL1A] bivalent antibody variants could bind to human TL1A over-expressed on the cell surface. […] [xTL1A] bivalent antibody variants were incubated with cells on ice for 30-60 minutes at a concentration of either 1 μg/mL or 20 μg/mL. Cells were pelleted by centrifugation at 1500 RPM for 5 minutes at 4° C. and supernatant was discarded by aspiration. The cells were washed three times with DPBS with 4% FBS buffer as described. Cells were resuspended in 100 μL of PE-anti-human IgG (Life technologies Catalog number H10104) diluted 1:500 in DPBS with 4% FBS buffer and incubated on ice for 15 minutes. Cells were washed three times as described and resuspended in 200 μL of DPBS with 4% FBS buffer, then run on a flow cytometry instrument.

recombinant human TL1A [4] = target: T4, recombinant human TL1A; assay: direct binding ELISA on plate-coated recombinant human TL1A (1 ug/mL), anti-human IgG-Fc HRP, OD450
Description: For the direct binding ELISA, 96-well high binding plates (Corning, product number 3590) were coated with 1 μg/mL recombinant TL1A in 100 μL/well in PBS overnight at 4° C. Plates were then blocked in PBS+0.02% casein solution and washed with PBS+0.05% Tween-20 following standard ELISA protocol. […] Plates were washed with PBS+0.05% Tween-20 following a standard ELISA protocol, and goat anti-human IgG-Fc HRP conjugated secondary antibody (Pierce, catalog number 31413) diluted to 1:10,000 in assay buffer was added to plates and incubated for 1 hour at room temperature. Next, the plates were washed with PBS+0.05% Tween-20 following a standard ELISA protocol, and then TMB substrate (BioFX Laboratories, catalog number TMBW-0100-01) was added to the plates. Reactions were stopped after approximately 5 minutes by adding 0.18 M ortho-phosphoric acid to each well and absorbance was read at 450 nm.

| Binder | binding result (human serum albumin) | binding result (bovine serum albumin) | further results |
| --- | --- | --- | --- |
| B1 |  |  | Kd (recombinant human TL1A [1]): 0.627 nM; koff (recombinant human TL1A [1]): 8.22e-05 s⁻¹; kon (recombinant human TL1A [1]): 131000 M⁻¹ s⁻¹; NF-κB assay IC50 (TF-1 reporter cells, 384-well) (recombinant human TL1A [2]): 0.27 nM; Kd (human IL-23): 0.194 nM; koff (human IL-23): 0.00055 s⁻¹; kon (human IL-23): 2.83e+06 M⁻¹ s⁻¹ |
| B2 | no binding (tested: 0.5-1000 nM) | no binding (tested: 0.5-1000 nM) |  |
| B3 | no binding (tested: 0.5-1000 nM) | no binding (tested: 0.5-1000 nM) |  |
| B4 | no binding (tested: 0.5-1000 nM) | no binding (tested: 0.5-1000 nM) |  |
| B5 | no binding (tested: 0.5-1000 nM) | no binding (tested: 0.5-1000 nM) |  |
| B6 | no binding (tested: 0.5-1000 nM) | no binding (tested: 0.5-1000 nM) |  |
| B7 | no binding (tested: 0.5-1000 nM) | no binding (tested: 0.5-1000 nM) |  |
| B8 |  |  | binding result [3]: no binding (tested: 20 ug/mL); binding result (recombinant human TL1A [4]): no binding (tested: 33.3 nM) |
| B9 |  |  | binding result [3]: no binding (tested: 20 ug/mL); binding result (recombinant human TL1A [4]): no binding (tested: 33.3 nM) |
